From patent publication US20190077860A1 (EISAI R AND D MANAGEMENT, published 2019)

How the values were obtained:
[1] = target: T1, human EphA4 extracellular region-SEAP-His protein (human, UniProt P54764 20-547); experiment: competition ELISA, competitor human Ephrin B3-Fc
T1 construct: also called hEphA4-SEAP-His
Description: Antibody A obtained in Example 1 was evaluated for its inhibitory activity against the binding between human EphA4 and its human ligand according to the following steps. Each well of a 96-well plate (Nunc) was coated with an anti-alkaline phosphatase antibody (Thermo Fisher Scientific). After incubation overnight at 4° C., each well was blocked with 1% BlockAce (DS Pharma Biomedical) at room temperature for 1 hour. After washing with 0.05% Tween 20/PBS (Thermo Fisher Scientific) three times, the human EphA4 extracellular region-SEAP-His protein obtained by the method of Example 1 was added (final concentration: 10 nM) to each well and incubated at room temperature for 1 hour. After washing three times, ligands and serially diluted antibody A (0, 0.003, 0.01, 0.03, 0.1, 0.3, 1, 3, 10, 30, 100, 300, 1000, and 3000 nM) or an EphA4 inhibitor KYL peptide ([…], 0, 0.003, 0.01, 0.03, 0.1, 0.3, 1, 3, 10, 30, 100, 300, 1000, and 3000 μM, its synthesis was outsourced to Toray Research Center) were added to each well. The ligands used were biotinylated human Ephrin A5-Fc chimera (R&D Systems, final concentration: 0.7 nM) and biotinylated human Ephrin B3-Fc chimera (R&D Systems, final concentration: 2.3 nM). […] The absorbance at 450 nm was read using a microplate reader (Molecular Devices or PerkinElmer). […]

[2] = target: T1, human EphA4 extracellular …; experiment: SPR (Biacore A100), antibody A captured on a rat anti-mouse IgG1 CM5 chip, human EphA4 extracellular region-SEAP-His as analyte at 0.8-50 nM, 1:1 fit
Description: (§1) The binding affinity of antibody A obtained in Example 1 for mouse and human EphA4 was determined by surface plasmon resonance (SPR) using Biacore A100 (GE Healthcare). First, a rat anti-mouse IgG₁ antibody produced with a conventional procedure by immunizing rat with a mouse IgG₁ antibody was immobilized on sensor chip CM5. The immobilization of the rat anti-mouse IgG1 antibody on sensor chip CM5 was performed by the amine coupling method using N-hydroxysuccinimide (NHS) and N-ethyl-N′-(3-dimethylaminopropyl)carbodiimide hydrochloride (EDC). Ethanolamine was used in blocking (the sensor chip and the reagents for immobilization were all manufactured by GE Healthcare). The antibody was diluted with a buffer solution for immobilization (10 mM sodium acetate, pH 4.5) into 1 to 2 μg/mL and immobilized on the sensor chip according to the protocol attached to Biacore A100. Antibody A was diluted with a running buffer solution HBS-EP (GE Healthcare, BR-1001-88), injected onto a flow cell for 120 seconds, and captured (amount of the antibody captured: approximately 70 to 100 RU). Subsequently, mouse or human EphA4 extracellular region-SEAP-His serially diluted in the range of 50, 25, 12.5, 6.3, 3.1, 1.6, 0.8, and 0 nM using HBS-EP was added to the sensor chip for 120 seconds. […]

[3] = target: T1, human EphA4 extracellular …; experiment: SPR (Biacore T200), human EphA4 extracellular region-SEAP-His captured on an anti-His antibody CM5 chip, antibody as analyte at 0.6-50 nM, 1:1 fit (run alongside F(ab')2)
Description: Next, the binding affinity of antibody A-Fab and antibody A-F(ab′)₂ for mouse and human EphA4 was determined by surface plasmon resonance (SPR) using Biacore T200 (GE Healthcare). Antibody A obtained in Example 1 was used as a control for the comparison of each fragment. First, an anti-His tag antibody was immobilized on sensor chip CM5. The immobilization of the anti-His tag antibody on sensor chip CM5 was performed by the amine coupling method using N-hydroxysuccinimide (NHS) and N-ethyl-N′-(3-dimethylaminopropyl)carbodiimide hydrochloride (EDC). Ethanolamine was used in blocking (the sensor chip and the reagents for immobilization were all manufactured by GE Healthcare). The antibody was diluted with a buffer solution for immobilization (10 mM sodium acetate, pH 4.5) into 3 μg/mL and immobilized on the sensor chip according to the protocol attached to Biacore T200.
Mouse or human EphA4 extracellular region-SEAP-His protein was diluted with a running buffer solution HBS-EP (GE Healthcare, BR-1001-88), injected onto a flow cell for 120 seconds, and captured (amount of the protein captured: approximately 10 to 20 RU). Subsequently, antibody A (50, 16.7, 5.6, 1.9, 0.6, and 0 nM), antibody A-Fab (500, 166.7, 55.6, 18.5, 6.2, and 0 nM), or antibody A-F(ab′)₂ (50, 16.7, 5.6, 1.9, 0.6, and 0 nM) serially diluted using HBS-EP was added to the sensor chip for 120 seconds. Binding reaction curves were sequentially observed at the time of the addition (association phase, for 120 sec) and after the completion of the addition (dissociation phase, for 900 sec). After the completion of each observation, the sensor chip was regenerated by the addition of 3 M MgCl₂ (Wako Pure Chemical Industries) (for 30 sec). The obtained binding reaction curves were subjected to fitting analysis with 1:1 binding models using software BIA evaluation attached to the system to calculate the binding affinity (KD=kd/ka) for mouse and human EphA4.

[4] = target: mouse EphA4 extracellular region-SEAP-His protein (mouse); experiment: SPR (Biacore A100), antibody A captured on a rat anti-mouse IgG1 CM5 chip, mouse EphA4 extracellular region-SEAP-His as analyte at 0.8-50 nM, 1:1 fit
Description: as §1

T1 sequence (P54764 20-547): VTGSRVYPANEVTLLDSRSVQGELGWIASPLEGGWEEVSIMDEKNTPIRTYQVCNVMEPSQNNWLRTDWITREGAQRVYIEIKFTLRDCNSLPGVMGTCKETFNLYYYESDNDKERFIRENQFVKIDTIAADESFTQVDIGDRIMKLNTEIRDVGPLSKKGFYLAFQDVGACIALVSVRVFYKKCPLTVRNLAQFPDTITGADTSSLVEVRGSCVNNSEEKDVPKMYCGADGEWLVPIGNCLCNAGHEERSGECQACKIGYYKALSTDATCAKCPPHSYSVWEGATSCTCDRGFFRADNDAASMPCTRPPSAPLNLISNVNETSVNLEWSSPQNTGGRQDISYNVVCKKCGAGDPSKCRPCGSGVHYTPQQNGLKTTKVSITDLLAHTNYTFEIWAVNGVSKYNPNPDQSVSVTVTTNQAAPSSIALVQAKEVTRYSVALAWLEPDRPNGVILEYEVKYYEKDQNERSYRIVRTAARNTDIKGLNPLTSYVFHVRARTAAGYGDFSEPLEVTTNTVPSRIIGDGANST
Sequence of mouse EphA4 extracellular region-SEAP-His protein (mouse) (chain, as listed by the source limits assumed): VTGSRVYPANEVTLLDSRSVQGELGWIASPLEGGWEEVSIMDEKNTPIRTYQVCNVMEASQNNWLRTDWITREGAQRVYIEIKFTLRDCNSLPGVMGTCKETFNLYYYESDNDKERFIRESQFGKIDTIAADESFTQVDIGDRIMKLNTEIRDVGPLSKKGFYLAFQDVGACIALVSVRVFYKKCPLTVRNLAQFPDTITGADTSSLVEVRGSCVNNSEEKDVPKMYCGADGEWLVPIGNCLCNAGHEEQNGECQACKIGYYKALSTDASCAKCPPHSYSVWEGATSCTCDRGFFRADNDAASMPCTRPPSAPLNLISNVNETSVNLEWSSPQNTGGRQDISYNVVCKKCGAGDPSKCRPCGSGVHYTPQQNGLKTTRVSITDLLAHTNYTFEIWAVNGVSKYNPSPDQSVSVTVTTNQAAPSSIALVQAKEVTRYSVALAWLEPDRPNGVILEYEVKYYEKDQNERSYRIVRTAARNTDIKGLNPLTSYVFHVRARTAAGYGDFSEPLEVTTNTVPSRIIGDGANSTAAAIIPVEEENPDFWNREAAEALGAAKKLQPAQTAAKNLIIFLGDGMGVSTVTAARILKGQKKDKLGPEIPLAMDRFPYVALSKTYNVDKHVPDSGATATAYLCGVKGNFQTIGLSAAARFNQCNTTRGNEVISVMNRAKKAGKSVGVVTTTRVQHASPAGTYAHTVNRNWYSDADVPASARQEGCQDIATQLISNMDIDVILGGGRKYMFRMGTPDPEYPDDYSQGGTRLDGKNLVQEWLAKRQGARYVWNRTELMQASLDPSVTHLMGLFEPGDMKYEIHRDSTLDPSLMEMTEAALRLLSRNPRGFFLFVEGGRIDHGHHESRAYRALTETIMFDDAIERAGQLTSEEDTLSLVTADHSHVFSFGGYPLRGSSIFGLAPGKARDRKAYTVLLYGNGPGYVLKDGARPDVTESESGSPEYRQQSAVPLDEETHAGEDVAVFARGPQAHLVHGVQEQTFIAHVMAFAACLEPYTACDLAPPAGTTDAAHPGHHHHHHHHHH

IC50 [1]: ~1.9 nM | koff [2]: 0.000152 s⁻¹ | kon [2]: 210000 M⁻¹ s⁻¹ | Kd [3]: 0.0399 nM | koff [3]: 0.000236 s⁻¹ | kon [3]: 5.91e+06 M⁻¹ s⁻¹ | koff [4]: 0.000144 s⁻¹ | kon [4]: 218000 M⁻¹ s⁻¹
B1: antibody A (antibody, mouse IgG1, kappa, V domains shown)
VH: QIQLVQSGPELKKPGETVKISCKASGYTFTDYSMHWVKQAPGKGLKWMGWINTETGEPTYADDFKGRFAFSLETSASTAYLQINNLKNEDTATYFCARIPLYYYGSRYWYFDVWGAGTTVTVSS
VL: DIQMTQSPASLSVSVGETVTITCRASENIYRNLAWYQQKQGKSPQLLVYAATNLADGVPSRFSGSGSGTQYSLKINSLQSEDFGSYYCQHFWGTPWTFGGGTKLEIKR
notes: mouse IgG1 heavy chain, kappa light chain; purified from hybridoma supernatant; also called anti-EphA4 monoclonal antibody; antibody A-IgG
